Test results taken from PMC8383118.

B1: paratox (Prx) from S. pyogenes MGAS315 (natural protein)
chain: MLTYDEFKQAIDRGYITADTVMIVRKNGQIFDYVLPNEKIKNGEIVTDEKVEEVLVELSR

Legend:
[1] = target: fluorescently labeled S. mutans XIP (dansyl-GLDWWSL) (Streptococcus mutans); experiment: other fluorescence titration; 0.2 μM dansyl-XIP with increasing ComR, 1 h, room temperature, dark; 20 mM HEPES pH 7.5, 100 mM NaCl, 1 mM β-ME; dansyl emission intensity
[2] = target: ComR S. mutans, full length (Streptococcus mutans)
[3] = target: ComR:dansyl-XIP complex (Streptococcus mutans); experiment: fluorescence polarisation; steady-state fluorescence anisotropy of 0.2 μM dansyl-XIP with 0.5 μM ComR and increasing Prx, 1 h, room temperature; 20 mM HEPES pH 7.5, 100 mM NaCl, 1 mM β-ME
[4] = target: ComR S. mutans DNA-binding domain (DBD) construct (Streptococcus mutans); experiment: ITC; 300 μM Prx (or PrxD32A) injected into 20 μM ComR S. mutans or DBD, 25 °C, gel filtration buffer (20 mM Tris-HCl pH 7.5, 100 mM NaCl, 1 mM β-ME); one site model
[5] = target: ComR S. mutans, full length (Streptococcus mutans); experiment: as above

Molecule	Kd [1] [µM]	EMSA: Prx needed for complete inhibition (no DNA band shift) of 4 μM ComR with 8 μM XIP and FAM-labeled comS promoter probe; Prx added with or before XIP (apo-ComR) [2] [µM]	EMSA: Prx needed for complete inhibition (no DNA band shift) when added after the ComR:XIP:DNA complex was allowed to form (activated ComR) [2] [µM]	Kd [3] [µM]	Kd [4] [µM]	dH [4] [kJ/mol]	stoichiometry N [4]	Kd [5] [µM]	dH [5] [kJ/mol]	stoichiometry N [5]
ComR S. mutans, full length (receptor)	0.32	–	–	–	–	–	–	–	–	–
B1	–	6	2	0.7	0.05	-87	1	0.39	-49.4	1
